Data on two molecules can be found in publication PMC3119658, “The Naturally Processed CD95L Elicits a c-Yes/Calcium/PI3K-Driven Cell Migration Pathway” (PLoS Biology, 2011).

Data set [1] has as its target Ig-CD95L (extracellular region of CD95L fused to a dimerization domain (Ig) of the LIF receptor gp190) (UniProt P48023). The data set is described as follows: SEC; gel filtration analysis, unpublished data. In general terms: In gel filtration, larger molecules generally elute earlier.
Data set [2] concerns the molecule itself. Nature of the data set: SEC; size exclusion on S-200-HR Sephacryl columns; fractions harvested and cl-CD95L dosed by ELISA.

Take “Ig-CD95L (extracellular region of CD95L fused to a dimerization domain (Ig) of the LIF receptor gp190) (from UniProt P48023 105-281) (ligand)”: the stoichiometry N (usually a count of units in the complex or per binding partner) in data set [1] was 12.

B1: metalloprotease-cleaved CD95L (ligand, UniProt P48023 127-281, looked up)
chain: LEKQIGHPSPPPEKKELRKVAHLTGKSNSRSMPLEWEDTYGIVLLSGVKYKKGGLVINETGLYFVYSKVYFRGQSCNNLPLSHKVYMRNSKYPQDLVMMEGKMMSYCTTGQMWARSSYLGAVFNLTSADHLYVNVSELSLVNFEESQTFFGLYKL
notes: In the functional row the CD95L is the soluble ligand in sera of SLE patients, not the 293-made preparation; also called cl-CD95L; naturally processed CD95L; source: 293 cells transfected with wild type CD95L cDNA; exosome-free supernatant, concentrated (10 kDa cut-off) and dialyzed against PBS
Turning to B1, the “stoichiometry N” value in data set [2] came to 3.
